Laboratory results reported in paper PMC6033896, “Discovery of Mcl-1 inhibitors from integrated high throughput and virtual screening” (Scientific Reports, 2018).

Biological target: recombinant Bfl-1 protein (UniProt Q16548)
Assay: fluorescence polarisation; direct binding of the fluorescent Bid probe to recombinant protein; Ex 485 nm, Em 530 nm, room temperature; buffer of the Kd determination not told apart from the two competitive assay buffers

Chain of recombinant Bfl-1 protein (Q16548 whole entry): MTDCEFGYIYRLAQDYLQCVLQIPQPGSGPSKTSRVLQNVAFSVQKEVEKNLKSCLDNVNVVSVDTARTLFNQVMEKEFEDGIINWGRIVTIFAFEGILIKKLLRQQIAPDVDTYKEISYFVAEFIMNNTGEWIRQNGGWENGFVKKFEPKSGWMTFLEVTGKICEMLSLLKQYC

Substance: fluorescent labelled Bid BH3 peptide
- Kd: 0.3 nM
